B1: H4H1339P (antibody, V domains shown)
VH: EVQLVESGGGMVQPGGSLRLSCAASGFTSSNYDMHWVRQATGKGLEWVSSIDTAGDTYYPDSVKGRFIISRENAKNSLYLQMNSLRAGDTAVYYCTREPRNYEILTGHYHYHGMDIWGQGTTVTVS
VL: AIQMTQSPSSLSASVGDRVTITCRASQAIRNDLGWYQQKPGKAPKLLIYTAFSLQSGVPSRFSGSKSGTDFTLTISSLQPEDFATYYCLQDYTNPRTFGQGTKVEIK
notes: Fully human anti-GCGR antibody; the controls are called isotype-matched hIgG4
B2: H4H1321P (antibody, V domains shown)
VH: QVQLVESGGGVVQPGRSLRLSCAASGFTFSSYDMHWVRQAPGKGLEWVAVISSDGRDKYYVDSVKGRFTISRDNSKNTLYLQMNSLRAEDTAVYYCAKEMVYYDILTGYHNYYGMDVWGQGTTVTVS
VL: DIQMTQSPSSLSASVGDRVTITCRASQGINNYLAWFQQKPGKAPKSLIHTASSLQSGVPSKFSGSGSGTDFTLTISSLQPEDFATYYCQQYNTYPLTFGGGTKVEIK
notes: as for B1
B3: H4H1331P (antibody, V domains shown)
VH: QVQLVESGGGVVQPGRSLRLSCAASGFTFSNFGMHWVRQAPGKGLEWVAVIWFDEIDKYYADSVKGRFTISRDNSKNTLYPQMNSLRAEDTAVYYCAREDYDILTGYYYAMDVWGQGTTVTVS
VL: DIQMTQSPSSLSASVGDRVTITCRASQGIKNDLGWYQQKPGKAPKRLIYAASRLQSGVPSRFSGSGSGTEFTLTISSLQPEDFGTYYCLQHNSHPTFGQGTKVEIK
notes: as for B1

Target: T1, hGCGR-mmh (human)
T1 construct: also called REGN547; monovalent hGCGR
T1 chain: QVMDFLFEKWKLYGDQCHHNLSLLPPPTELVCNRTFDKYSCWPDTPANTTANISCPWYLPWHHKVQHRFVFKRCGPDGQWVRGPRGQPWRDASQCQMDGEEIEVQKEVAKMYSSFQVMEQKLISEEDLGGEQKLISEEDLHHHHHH
Assay: SPR Biacore T100, 25C, mAb captured, antigen flowed
Description: (§1) Measurements were conducted on a T100 Biacore instrument. Antibodies were captured onto the Biacore sensor chip surface via a covalently-linked anti-human kappa antibody capture surface, and the soluble GCGR proteins were applied to the surface either in a monovalent (hGCGR expressed with a myc-myc-hexa-histidine C-terminal tag) or bivalent (hGCGR and MfGCGR expressed with an N-terminal Fc fusion) format.
(§2) Binding dissociation equilibrium constants and dissociative half-lives were calculated from the kinetic rate constants as: KD=kd/kₐ; t_{1/2}=(In2/kd).
In the case of B1, the Kd is reported as 0.825 nM, the “T½” value is reported as 0.367 h and the koff is reported as 0.000532 s⁻¹. It also gave a kon of 645000 M⁻¹ s⁻¹. With B2 the Kd was 3.54 nM, the “T½” value was 0.05 h and the koff was 0.00374 s⁻¹. The kon was 1.06e+06 M⁻¹ s⁻¹. In the case of B3, the Kd is reported as 0.17 nM, the “T½” value is reported as 1.73 h and the koff is reported as 0.000111 s⁻¹. It also gave a kon of 657000 M⁻¹ s⁻¹.

The binders below were run against T2, mfGCGR-hFc (cynomolgus monkey (Macaca fascicularis)) in the same assay as above.
T2 construct: also called mfGCGR-N-terminal hFc
T2 sequence (chain, as listed by the source limits assumed): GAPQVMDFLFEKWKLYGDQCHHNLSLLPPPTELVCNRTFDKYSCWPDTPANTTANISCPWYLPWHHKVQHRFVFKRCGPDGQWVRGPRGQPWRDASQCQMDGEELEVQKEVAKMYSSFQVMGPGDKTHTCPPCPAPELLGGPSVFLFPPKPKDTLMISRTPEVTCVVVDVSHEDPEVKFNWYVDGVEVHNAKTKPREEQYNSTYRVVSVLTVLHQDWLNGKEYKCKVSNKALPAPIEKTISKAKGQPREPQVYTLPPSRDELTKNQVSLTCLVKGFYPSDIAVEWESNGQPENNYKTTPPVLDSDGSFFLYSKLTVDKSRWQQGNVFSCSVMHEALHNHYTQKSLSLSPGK
Description: as §1, §2
B1 was tested, and the Kd was 0.0182 nM, the “T½” value was 8.43 h and the koff was 2.28e-05 s⁻¹. For the same binder, the kon was 1.26e+06 M⁻¹ s⁻¹. For B2, the Kd was 0.0238 nM, the “T½” value was 4.6 h and the koff was 4.18e-05 s⁻¹. It also gave a kon of 1.76e+06 M⁻¹ s⁻¹. For B3, the Kd was 0.0069 nM, the “T½” value was 23.7 h and the koff was 8.12e-06 s⁻¹. It also gave a kon of 1.17e+06 M⁻¹ s⁻¹.

These binders were tested against T3, hGCGR-hFc (human) in the same assay as above.
T3 construct: also called REGN316
T3 sequence (chain, as listed by the source limits assumed): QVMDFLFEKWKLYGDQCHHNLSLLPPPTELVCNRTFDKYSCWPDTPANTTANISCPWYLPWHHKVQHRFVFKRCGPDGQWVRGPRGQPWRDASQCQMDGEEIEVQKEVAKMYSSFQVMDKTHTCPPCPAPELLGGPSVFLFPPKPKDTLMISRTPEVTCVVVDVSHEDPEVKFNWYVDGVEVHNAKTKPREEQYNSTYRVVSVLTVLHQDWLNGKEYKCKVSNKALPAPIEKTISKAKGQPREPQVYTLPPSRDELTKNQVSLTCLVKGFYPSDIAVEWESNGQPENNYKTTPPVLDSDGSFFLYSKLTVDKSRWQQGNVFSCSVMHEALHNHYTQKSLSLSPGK
Description: as §1, §2
For B1, the Kd was 0.0618 nM, the “T½” value was 3.1 h and the koff was 6.2e-05 s⁻¹. For the same binder, the kon was 1e+06 M⁻¹ s⁻¹. With B2 the Kd was 0.238 nM, the “T½” value was 0.683 h and the koff was 0.000285 s⁻¹. For the same binder, the kon was 1.2e+06 M⁻¹ s⁻¹. With B3 the Kd was 0.0202 nM, the “T½” value was 12.5 h and the koff was 1.54e-05 s⁻¹. The kon was 760000 M⁻¹ s⁻¹.

What follows are binders tested against human GCGR (full-length, on HEK293 reporter cells) (human, UniProt P47871 27-477) (assay: cell-based or functional assay).
human GCGR (full-length, on HEK293 reporter cells), sequence (P47871 27-477): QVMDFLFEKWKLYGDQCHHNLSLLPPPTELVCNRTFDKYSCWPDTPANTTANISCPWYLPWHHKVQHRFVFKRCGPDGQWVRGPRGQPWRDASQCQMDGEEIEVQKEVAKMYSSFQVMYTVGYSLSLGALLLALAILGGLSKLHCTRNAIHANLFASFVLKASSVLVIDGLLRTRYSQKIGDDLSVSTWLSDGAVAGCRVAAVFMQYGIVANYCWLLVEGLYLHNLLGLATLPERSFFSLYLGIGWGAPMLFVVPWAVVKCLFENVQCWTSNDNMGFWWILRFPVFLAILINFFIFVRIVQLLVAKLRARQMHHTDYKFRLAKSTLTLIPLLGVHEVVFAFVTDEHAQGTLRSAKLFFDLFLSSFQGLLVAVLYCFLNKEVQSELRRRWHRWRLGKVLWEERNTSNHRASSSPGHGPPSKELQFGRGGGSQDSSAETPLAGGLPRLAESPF
With B1 the “IC50, inhibition of 100 pM GCG-stimulated luciferase activity, hGCGR reporter cells” value (shortened to “IC50, inhibition … hGCGR reporter cells”) was 0.46 nM. For B2, the “IC50, inhibition … hGCGR reporter cells” value was 0.27 nM. With B3 the “IC50, inhibition … hGCGR reporter cells” value was 0.66 nM.

These binders were tested against mouse GCGR (full-length, on HEK293 reporter cells) (mouse, UniProt Q61606 27-485) (assay: cell-based or functional assay).
mouse GCGR (full-length, on HEK293 reporter cells), sequence (Q61606 27-485 limits assumed): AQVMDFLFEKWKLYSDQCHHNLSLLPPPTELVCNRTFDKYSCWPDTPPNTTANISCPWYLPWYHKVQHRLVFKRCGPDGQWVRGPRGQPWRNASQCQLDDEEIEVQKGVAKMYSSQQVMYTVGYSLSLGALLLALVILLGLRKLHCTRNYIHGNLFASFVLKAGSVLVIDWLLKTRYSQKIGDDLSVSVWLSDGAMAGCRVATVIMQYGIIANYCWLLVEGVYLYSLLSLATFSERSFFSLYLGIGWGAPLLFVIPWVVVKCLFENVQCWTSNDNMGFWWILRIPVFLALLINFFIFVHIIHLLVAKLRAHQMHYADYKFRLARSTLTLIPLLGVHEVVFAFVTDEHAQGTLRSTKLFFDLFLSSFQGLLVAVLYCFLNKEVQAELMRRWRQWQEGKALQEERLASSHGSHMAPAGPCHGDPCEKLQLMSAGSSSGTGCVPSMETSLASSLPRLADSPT
B1 was tested, and the “IC50, inhibition of 100 pM GCG-stimulated luciferase activity, mGCGR reporter cells” value (“IC50, inhibition … mGCGR reporter cells” for short) was 1.6 nM. In the case of B2, the “IC50, inhibition … mGCGR reporter cells” value is reported as 1.13 nM. In the case of B3, the “IC50, inhibition … mGCGR reporter cells” value is reported as 1.62 nM.

Target: T4, monkey (Macaca fascicularis) GCGR (full-length, on HEK293 reporter cells) (monkey (Macaca fascicularis), UniProt P47871 26-477 (human entry))
T4 chain: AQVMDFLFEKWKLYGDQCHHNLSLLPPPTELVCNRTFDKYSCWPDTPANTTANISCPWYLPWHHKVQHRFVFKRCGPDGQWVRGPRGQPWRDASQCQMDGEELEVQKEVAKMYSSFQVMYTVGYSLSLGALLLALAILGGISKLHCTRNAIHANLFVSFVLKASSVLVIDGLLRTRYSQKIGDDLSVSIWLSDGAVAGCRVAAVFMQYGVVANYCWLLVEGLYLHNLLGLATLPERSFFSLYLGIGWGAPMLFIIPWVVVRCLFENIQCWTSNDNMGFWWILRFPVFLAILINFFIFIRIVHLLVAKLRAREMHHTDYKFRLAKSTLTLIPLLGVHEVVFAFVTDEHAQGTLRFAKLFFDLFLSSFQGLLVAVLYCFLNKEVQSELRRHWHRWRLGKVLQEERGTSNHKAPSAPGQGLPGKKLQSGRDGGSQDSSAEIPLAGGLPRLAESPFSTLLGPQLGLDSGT
Assay: cell-based or functional assay
With B1 the “IC50, inhibition of 100 pM GCG-stimulated luciferase activity, mfGCGR reporter cells” value (“IC50, inhibition … mfGCGR reporter cells” below) was 2.85 nM. B2 was tested, and the “IC50, inhibition … mfGCGR reporter cells” value was 4.03 nM. For B3, the “IC50, inhibition … mfGCGR reporter cells” value was 8.29 nM.

The binders below were run against rat GCGR (full-length, on transiently transfected HEK293 reporter cells) (rat, UniProt P30082 27-485) (assay: cell-based or functional assay).
rat GCGR (full-length, on transiently transfected HEK293 reporter cells), sequence (P30082 27-485 limits assumed): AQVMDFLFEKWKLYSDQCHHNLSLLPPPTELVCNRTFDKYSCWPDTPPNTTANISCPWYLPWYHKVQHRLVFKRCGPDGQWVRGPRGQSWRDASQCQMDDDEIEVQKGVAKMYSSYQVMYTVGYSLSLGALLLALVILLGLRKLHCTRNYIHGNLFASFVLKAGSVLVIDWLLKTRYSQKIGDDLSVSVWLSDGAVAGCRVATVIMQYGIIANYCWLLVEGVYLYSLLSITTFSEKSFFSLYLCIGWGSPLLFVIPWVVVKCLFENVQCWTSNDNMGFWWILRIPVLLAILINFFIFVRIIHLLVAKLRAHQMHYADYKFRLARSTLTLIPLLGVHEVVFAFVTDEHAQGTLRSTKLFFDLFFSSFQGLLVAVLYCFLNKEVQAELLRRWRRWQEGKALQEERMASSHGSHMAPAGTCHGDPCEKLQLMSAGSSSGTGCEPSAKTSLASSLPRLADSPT
In the case of B1, the “IC50, inhibition of 100 pM GCG-stimulated luciferase activity, rat GCGR reporter cells” value (“IC50, inhibition … rat GCGR reporter cells” below) is reported as 0.97 nM. For B2, the “IC50, inhibition … rat GCGR reporter cells” value was 1.21 nM. For B3, the “IC50, inhibition … rat GCGR reporter cells” value was 3.87 nM.

Target: T1, hGCGR-mmh
Assay: SPR Biacore T100, 37C, mAb captured, antigen flowed
Description: as §1, §2
In the case of B1, the Kd is reported as 4.91 nM, the “T½” value is reported as 0.05 h and the koff is reported as 0.0043 s⁻¹. For the same binder, the kon was 876000 M⁻¹ s⁻¹. B2 was tested, and the Kd was 12.8 nM, the “T½” value was 0.0167 h and the koff was 0.0202 s⁻¹. The kon was 1.58e+06 M⁻¹ s⁻¹. With B3 the Kd was 0.533 nM, the “T½” value was 0.367 h and the koff was 0.000519 s⁻¹. The kon was 973000 M⁻¹ s⁻¹.

These binders were tested against T2, mfGCGR-hFc in the same assay as above.
Description: as §1, §2
With B1 the Kd was 0.0631 nM, the “T½” value was 1.8 h and the koff was 0.000107 s⁻¹. It also gave a kon of 1.69e+06 M⁻¹ s⁻¹. With B2 the Kd was 0.0347 nM, the “T½” value was 2.53 h and the koff was 7.59e-05 s⁻¹. The kon was 2.19e+06 M⁻¹ s⁻¹. In the case of B3, the Kd is reported as 0.0257 nM, the “T½” value is reported as 4.68 h and the koff is reported as 4.12e-05 s⁻¹. It also gave a kon of 1.6e+06 M⁻¹ s⁻¹.

What follows are binders tested against T3, hGCGR-hFc in the same assay as above.
Description: as §1, §2
B1 was tested, and the Kd was 0.318 nM, the “T½” value was 0.517 h and the koff was 0.000371 s⁻¹. The kon was 1.17e+06 M⁻¹ s⁻¹. B2 was tested, and the Kd was 0.077 nM, the “T½” value was 1.77 h and the koff was 0.000109 s⁻¹. It also gave a kon of 1.41e+06 M⁻¹ s⁻¹. B3 was tested, and the Kd was 0.0779 nM, the “T½” value was 2.12 h and the koff was 9.12e-05 s⁻¹. The kon was 1.17e+06 M⁻¹ s⁻¹.

Reference: patent US20130251728A1 (Regeneron, published 2013)
